Data reported in paper PMC5576896 (Cell reports, 2016).
Values belong to the binder of their own block, whether it stands above or below them.

B2: recombinant RECQL4 (natural protein, human, UniProt O94761 1-1208, looked up)
chain: MERLRDVRERLQAWERAFRRQRGRRPSQDDVEAAPEETRALYREYRTLKRTTGQAGGGLRSSESLPAAAEEAPEPRCWGPHLNRAATKSPQSTPGRSRQGSVPDYGQRLKANLKGTLQAGPALGRRPWPLGRASSKASTPKPPGTGPVPSFAEKVSDEPPQLPEPQPRPGRLQHLQASLSQRLGSLDPGWLQRCHSEVPDFLGAPKACRPDLGSEESQLLIPGESAVLGPGAGSQGPEASAFQEVSIRVGSPQPSSSGGEKRRWNEEPWESPAQVQQESSQAGPPSEGAGAVAVEEDPPGEPVQAQPPQPCSSPSNPRYHGLSPSSQARAGKAEGTAPLHIFPRLARHDRGNYVRLNMKQKHYVRGRALRSRLLRKQAWKQKWRKKGECFGGGGATVTTKESCFLNEQFDHWAAQCPRPASEEDTDAVGPEPLVPSPQPVPEVPSLDPTVLPLYSLGPSGQLAETPAEVFQALEQLGHQAFRPGQERAVMRILSGISTLLVLPTGAGKSLCYQLPALLYSRRSPCLTLVVSPLLSLMDDQVSGLPPCLKAACIHSGMTRKQRESVLQKIRAAQVHVLMLTPEALVGAGGLPPAAQLPPVAFACIDEAHCLSQWSHNFRPCYLRVCKVLRERMGVHCFLGLTATATRRTASDVAQHLAVAEEPDLHGPAPVPTNLHLSVSMDRDTDQALLTLLQGKRFQNLDSIIIYCNRREDTERIAALLRTCLHAAWVPGSGGRAPKTTAEAYHAGMCSRERRRVQRAFMQGQLRVVVATVAFGMGLDRPDVRAVLHLGLPPSFESYVQAVGRAGRDGQPAHCHLFLQPQGEDLRELRRHVHADSTDFLAVKRLVQRVFPACTCTCTRPPSEQEGAVGGERPVPKYPPQEAEQLSHQAAPGPRRVCMGHERALPIQLTVQALDMPEEAIETLLCYLELHPHHWLELLATTYTHCRLNCPGGPAQLQALAHRCPPLAVCLAQQLPEDPGQGSSSVEFDMVKLVDSMGWELASVRRALCQLQWDHEPRTGVRRGTGVLVEFSELAFHLRSPGDLTAEEKDQICDFLYGRVQARERQALARLRRTFQAFHSVAFPSCGPCLEQQDEERSTRLKDLLGRYFEEEEGQEPGGMEDAQGPEPGQARLQDWEDQVRCDIRQFLSLRPEEKFSSRAVARIFHGIGSPCYPAQVYGQDRRFWRKYLHLSFHALVGLATEELLQVAR

What was measured:
recombinant RECQL4 = target: B2; assay: co-IP
[1] = target: MRE11-RAD50-NBS1 complex (recombinant) (human, UniProt P49959 1-708; Q92878 1-1312; O60934 1-754); assay: co-IP
Sequence of MRE11-RAD50-NBS1 complex (recombinant) (Q92878 whole entry, chain 2 of 2): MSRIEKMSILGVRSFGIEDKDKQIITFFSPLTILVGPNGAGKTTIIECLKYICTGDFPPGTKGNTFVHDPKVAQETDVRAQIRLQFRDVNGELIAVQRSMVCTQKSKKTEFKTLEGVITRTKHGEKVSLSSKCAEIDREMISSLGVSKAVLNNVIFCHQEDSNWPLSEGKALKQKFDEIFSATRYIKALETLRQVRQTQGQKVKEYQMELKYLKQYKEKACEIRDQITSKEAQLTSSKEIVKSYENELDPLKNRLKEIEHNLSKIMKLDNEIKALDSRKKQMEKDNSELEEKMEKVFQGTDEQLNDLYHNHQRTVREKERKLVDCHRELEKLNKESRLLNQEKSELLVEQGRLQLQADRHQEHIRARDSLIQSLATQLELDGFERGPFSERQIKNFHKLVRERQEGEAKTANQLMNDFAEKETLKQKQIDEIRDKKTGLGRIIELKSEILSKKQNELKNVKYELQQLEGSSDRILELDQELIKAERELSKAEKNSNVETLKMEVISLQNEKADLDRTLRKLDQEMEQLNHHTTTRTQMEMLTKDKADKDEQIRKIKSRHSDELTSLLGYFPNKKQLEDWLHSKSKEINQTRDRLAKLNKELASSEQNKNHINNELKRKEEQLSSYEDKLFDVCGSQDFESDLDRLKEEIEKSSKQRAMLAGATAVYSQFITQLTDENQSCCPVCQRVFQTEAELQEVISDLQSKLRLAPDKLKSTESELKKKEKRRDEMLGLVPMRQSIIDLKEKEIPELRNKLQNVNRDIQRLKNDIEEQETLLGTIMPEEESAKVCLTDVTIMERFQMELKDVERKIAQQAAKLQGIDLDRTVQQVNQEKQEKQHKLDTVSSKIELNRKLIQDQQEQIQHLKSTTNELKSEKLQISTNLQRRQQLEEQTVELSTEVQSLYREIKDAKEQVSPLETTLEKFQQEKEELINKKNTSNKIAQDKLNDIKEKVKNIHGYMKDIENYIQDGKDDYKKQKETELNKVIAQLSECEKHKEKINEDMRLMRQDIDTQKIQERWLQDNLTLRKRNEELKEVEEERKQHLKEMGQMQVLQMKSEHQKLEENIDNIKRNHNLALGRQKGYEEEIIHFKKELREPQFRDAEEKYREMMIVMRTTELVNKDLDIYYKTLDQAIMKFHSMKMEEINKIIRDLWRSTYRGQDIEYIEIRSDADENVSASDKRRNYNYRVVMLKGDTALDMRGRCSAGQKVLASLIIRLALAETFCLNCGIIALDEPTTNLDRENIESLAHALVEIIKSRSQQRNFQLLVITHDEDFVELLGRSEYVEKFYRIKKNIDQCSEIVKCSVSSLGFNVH
Sequence of MRE11-RAD50-NBS1 complex (recombinant) (O60934 whole entry, chain 3 of 2): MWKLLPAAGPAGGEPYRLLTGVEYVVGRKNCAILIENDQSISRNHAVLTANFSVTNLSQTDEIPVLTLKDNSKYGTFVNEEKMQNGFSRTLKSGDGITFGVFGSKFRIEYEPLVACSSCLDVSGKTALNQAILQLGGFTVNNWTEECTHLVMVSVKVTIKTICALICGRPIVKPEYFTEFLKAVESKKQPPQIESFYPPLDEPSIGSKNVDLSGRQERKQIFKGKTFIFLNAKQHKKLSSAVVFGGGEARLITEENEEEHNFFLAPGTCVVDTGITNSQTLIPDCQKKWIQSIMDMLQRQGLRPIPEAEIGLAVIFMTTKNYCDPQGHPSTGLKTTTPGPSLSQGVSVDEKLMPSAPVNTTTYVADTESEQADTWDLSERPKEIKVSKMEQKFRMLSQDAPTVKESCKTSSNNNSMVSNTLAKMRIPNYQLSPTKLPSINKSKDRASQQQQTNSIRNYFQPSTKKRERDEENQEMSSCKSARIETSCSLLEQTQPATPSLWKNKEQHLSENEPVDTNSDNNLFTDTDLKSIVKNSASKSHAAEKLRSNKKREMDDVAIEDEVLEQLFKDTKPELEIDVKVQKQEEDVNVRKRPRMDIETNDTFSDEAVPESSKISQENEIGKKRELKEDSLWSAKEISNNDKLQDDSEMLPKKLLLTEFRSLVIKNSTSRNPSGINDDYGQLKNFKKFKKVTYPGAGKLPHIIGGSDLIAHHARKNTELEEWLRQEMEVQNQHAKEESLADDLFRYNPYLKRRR

purified RECQL4-3XFLAG = target: T1, purified RECQL4-3XFLAG (human, UniProt O94761 1-1208); assay: pull-down
T1 sequence (looked up): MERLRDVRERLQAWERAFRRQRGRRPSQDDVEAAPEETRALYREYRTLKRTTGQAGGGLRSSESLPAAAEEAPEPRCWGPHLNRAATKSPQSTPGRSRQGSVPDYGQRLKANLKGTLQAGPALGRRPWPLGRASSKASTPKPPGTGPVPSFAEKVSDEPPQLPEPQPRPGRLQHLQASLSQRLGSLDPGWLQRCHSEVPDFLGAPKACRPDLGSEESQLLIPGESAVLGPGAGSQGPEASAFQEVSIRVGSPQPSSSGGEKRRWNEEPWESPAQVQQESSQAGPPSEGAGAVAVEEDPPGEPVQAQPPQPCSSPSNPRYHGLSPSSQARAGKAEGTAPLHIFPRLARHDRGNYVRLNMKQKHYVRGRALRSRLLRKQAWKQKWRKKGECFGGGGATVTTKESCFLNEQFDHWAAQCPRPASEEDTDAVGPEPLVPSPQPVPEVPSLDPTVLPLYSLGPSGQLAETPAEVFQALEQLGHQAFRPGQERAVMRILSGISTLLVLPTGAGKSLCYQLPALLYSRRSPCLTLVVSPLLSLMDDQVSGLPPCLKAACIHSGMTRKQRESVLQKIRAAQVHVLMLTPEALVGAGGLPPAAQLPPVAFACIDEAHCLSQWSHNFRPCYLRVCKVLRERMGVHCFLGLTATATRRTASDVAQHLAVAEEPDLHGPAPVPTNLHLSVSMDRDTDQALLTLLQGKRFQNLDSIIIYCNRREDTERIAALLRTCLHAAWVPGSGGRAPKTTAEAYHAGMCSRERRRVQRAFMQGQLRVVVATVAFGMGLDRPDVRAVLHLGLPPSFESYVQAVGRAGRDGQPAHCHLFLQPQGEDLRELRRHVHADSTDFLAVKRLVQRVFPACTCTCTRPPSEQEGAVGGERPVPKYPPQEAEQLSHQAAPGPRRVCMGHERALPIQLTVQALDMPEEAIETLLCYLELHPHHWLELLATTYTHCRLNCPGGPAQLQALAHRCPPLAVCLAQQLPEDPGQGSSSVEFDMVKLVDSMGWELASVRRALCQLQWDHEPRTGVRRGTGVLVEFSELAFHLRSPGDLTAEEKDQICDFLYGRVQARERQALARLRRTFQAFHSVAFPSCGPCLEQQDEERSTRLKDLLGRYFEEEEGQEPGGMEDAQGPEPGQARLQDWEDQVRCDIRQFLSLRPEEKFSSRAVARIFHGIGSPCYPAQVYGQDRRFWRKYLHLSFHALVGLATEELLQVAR

RECQL4-KM-3XFLAG = target: T2, RECQL4-KM-3XFLAG (human, UniProt O94761 1-1208, lysine 508 replaced with methionine (RECQL4-KM)); assay: pull-down
T2 sequence (looked up): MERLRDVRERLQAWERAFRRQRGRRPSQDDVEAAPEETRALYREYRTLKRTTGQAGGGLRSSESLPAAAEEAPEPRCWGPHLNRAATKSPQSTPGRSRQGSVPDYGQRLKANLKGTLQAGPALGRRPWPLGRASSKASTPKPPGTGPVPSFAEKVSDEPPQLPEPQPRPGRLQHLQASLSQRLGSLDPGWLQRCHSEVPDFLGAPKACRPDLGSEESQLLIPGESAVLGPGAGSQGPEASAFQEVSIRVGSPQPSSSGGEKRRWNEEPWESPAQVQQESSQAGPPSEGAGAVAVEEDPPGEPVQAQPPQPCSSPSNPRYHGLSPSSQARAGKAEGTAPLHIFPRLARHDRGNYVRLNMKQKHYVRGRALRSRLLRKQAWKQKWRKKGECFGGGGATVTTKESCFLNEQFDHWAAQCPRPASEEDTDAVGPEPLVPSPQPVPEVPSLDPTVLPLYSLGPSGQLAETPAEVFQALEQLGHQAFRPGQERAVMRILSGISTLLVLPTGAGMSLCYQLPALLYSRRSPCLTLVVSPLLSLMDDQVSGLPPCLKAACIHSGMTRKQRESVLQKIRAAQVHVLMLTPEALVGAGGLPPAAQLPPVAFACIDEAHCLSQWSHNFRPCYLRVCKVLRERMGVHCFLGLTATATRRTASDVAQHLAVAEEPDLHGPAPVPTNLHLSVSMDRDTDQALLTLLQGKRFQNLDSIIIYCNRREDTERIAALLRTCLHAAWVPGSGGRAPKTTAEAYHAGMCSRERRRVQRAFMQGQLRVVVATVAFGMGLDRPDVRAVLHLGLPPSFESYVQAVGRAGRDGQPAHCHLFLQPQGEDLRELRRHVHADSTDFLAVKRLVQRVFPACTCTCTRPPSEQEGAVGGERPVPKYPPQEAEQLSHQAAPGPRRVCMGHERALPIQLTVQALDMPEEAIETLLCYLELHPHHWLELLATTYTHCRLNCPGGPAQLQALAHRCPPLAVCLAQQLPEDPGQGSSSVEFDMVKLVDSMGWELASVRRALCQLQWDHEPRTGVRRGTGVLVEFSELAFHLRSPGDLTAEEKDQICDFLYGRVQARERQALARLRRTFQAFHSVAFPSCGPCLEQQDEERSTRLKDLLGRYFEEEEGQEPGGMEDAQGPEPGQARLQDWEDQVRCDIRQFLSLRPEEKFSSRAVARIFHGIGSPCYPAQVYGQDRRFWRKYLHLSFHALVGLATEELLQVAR

binding result (recombinant RECQL4): binds
B1: recombinant CtIP (natural protein, human, UniProt Q99708 1-897, looked up)
chain: MNISGSSCGSPNSADTSSDFKDLWTKLKECHDREVQGLQVKVTKLKQERILDAQRLEEFFTKNQQLREQQKVLHETIKVLEDRLRAGLCDRCAVTEEHMRKKQQEFENIRQQNLKLITELMNERNTLQEENKKLSEQLQQKIENDQQHQAAELECEEDVIPDSPITAFSFSGVNRLRRKENPHVRYIEQTHTKLEHSVCANEMRKVSKSSTHPQHNPNENEILVADTYDQSQSPMAKAHGTSSYTPDKSSFNLATVVAETLGLGVQEESETQGPMSPLGDELYHCLEGNHKKQPFEESTRNTEDSLRFSDSTSKTPPQEELPTRVSSPVFGATSSIKSGLDLNTSLSPSLLQPGKKKHLKTLPFSNTCISRLEKTRSKSEDSALFTHHSLGSEVNKIIIQSSNKQILINKNISESLGEQNRTEYGKDSNTDKHLEPLKSLGGRTSKRKKTEEESEHEVSCPQASFDKENAFPFPMDNQFSMNGDCVMDKPLDLSDRFSAIQRQEKSQGSETSKNKFRQVTLYEALKTIPKGFSSSRKASDGNCTLPKDSPGEPCSQECIILQPLNKCSPDNKPSLQIKEENAVFKIPLRPRESLETENVLDDIKSAGSHEPIKIQTRSDHGGCELASVLQLNPCRTGKIKSLQNNQDVSFENIQWSIDPGADLSQYKMDVTVIDTKDGSQSKLGGETVDMDCTLVSETVLLKMKKQEQKGEKSSNEERKMNDSLEDMFDRTTHEEYESCLADSFSQAADEEEELSTATKKLHTHGDKQDKVKQKAFVEPYFKGDERETSLQNFPHIEVVRKKEERRKLLGHTCKECEIYYADMPAEEREKKLASCSRHRFRYIPPNTPENFWEVGFPSTQTCMERGYIKEDLDPCPRPKRRQPYNAIFSPKGKEQKT

Binder: B2
binding result [1]: binds

binding result (purified RECQL4-3XFLAG): binds
binding result (RECQL4-KM-3XFLAG): binds
B3: purified YFP-MRE11 (natural protein, human, UniProt P49959 1-708, looked up)
chain: MSTADALDDENTFKILVATDIHLGFMEKDAVRGNDTFVTLDEILRLAQENEVDFILLGGDLFHENKPSRKTLHTCLELLRKYCMGDRPVQFEILSDQSVNFGFSKFPWVNYQDGNLNISIPVFSIHGNHDDPTGADALCALDILSCAGFVNHFGRSMSVEKIDISPVLLQKGSTKIALYGLGSIPDERLYRMFVNKKVTMLRPKEDENSWFNLFVIHQNRSKHGSTNFIPEQFLDDFIDLVIWGHEHECKIAPTKNEQQLFYISQPGSSVVTSLSPGEAVKKHVGLLRIKGRKMNMHKIPLHTVRQFFMEDIVLANHPDIFNPDNPKVTQAIQSFCLEKIEEMLENAERERLGNSHQPEKPLVRLRVDYSGGFEPFSVLRFSQKFVDRVANPKDIIHFFRHREQKEKTGEEINFGKLITKPSEGTTLRVEDLVKQYFQTAEKNVQLSLLTERGMGEAVQEFVDKEEKDAIEELVKYQLEKTQRFLKERHIDALEDKIDEEVRRFRETRQKNTNEEDDEVREAMTRARALRSQSEESASAFSADDLMSIDLAEQMANDSDDSISAATNKGRGRGRGRRGGRGQNSASRGGSQRGRADTGLETSTRSRNSKTAVSASRNMSIIDAFKSTRQQPSRNVTTKNYSEVIEVDESDVEEDIFPTTSKTDQRWSSTSSSKIMSQSQVSKGVDFESSEDDDDDPFMNTSSLRRNRR
